# Measured values: US20220332804A1 (CSL INNOVATION, published 2022)
# T1: human C2 F270A (human, UniProt P06681 21-752)
# T1 sequence: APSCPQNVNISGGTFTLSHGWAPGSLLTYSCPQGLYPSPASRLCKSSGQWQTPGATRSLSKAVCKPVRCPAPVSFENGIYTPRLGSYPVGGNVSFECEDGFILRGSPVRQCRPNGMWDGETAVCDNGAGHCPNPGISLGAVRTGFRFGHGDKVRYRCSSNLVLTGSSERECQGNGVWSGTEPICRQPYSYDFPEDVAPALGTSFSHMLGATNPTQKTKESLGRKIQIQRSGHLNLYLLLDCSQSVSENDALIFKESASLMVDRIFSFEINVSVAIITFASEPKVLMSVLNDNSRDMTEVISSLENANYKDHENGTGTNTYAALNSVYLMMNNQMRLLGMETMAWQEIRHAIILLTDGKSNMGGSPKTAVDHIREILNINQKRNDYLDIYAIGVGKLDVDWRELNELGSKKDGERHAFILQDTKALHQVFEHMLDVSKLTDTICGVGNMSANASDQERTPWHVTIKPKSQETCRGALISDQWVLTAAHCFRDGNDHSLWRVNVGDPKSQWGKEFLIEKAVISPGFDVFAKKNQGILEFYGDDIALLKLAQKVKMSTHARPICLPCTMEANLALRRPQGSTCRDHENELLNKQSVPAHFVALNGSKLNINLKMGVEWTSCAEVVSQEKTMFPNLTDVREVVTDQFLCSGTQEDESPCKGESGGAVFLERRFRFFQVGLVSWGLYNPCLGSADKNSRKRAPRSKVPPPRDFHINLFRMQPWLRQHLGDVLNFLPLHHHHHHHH
# T2: human C2 S278A (human, UniProt P06681 21-752)
# T2 sequence: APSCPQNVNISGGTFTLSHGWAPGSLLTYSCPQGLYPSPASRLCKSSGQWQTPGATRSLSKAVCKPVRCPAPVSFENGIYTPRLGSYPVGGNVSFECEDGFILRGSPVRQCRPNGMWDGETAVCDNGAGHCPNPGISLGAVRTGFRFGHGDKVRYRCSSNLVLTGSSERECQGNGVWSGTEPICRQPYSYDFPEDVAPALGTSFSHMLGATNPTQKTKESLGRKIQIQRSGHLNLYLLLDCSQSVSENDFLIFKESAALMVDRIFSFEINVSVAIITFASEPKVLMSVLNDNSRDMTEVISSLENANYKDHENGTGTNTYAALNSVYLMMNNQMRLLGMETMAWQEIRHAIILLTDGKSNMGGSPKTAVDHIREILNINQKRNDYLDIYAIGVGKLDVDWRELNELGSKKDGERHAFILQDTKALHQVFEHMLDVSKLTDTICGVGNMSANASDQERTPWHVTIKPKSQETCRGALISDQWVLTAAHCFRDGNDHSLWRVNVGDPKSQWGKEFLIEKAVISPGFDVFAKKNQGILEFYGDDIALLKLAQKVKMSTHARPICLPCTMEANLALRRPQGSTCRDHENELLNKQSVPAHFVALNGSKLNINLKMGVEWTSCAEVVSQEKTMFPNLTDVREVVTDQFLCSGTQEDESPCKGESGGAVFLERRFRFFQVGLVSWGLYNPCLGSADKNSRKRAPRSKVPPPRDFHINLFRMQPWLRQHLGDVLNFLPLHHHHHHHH
# T3: human C2 V722A (human, UniProt P06681 21-752)
# T3 sequence: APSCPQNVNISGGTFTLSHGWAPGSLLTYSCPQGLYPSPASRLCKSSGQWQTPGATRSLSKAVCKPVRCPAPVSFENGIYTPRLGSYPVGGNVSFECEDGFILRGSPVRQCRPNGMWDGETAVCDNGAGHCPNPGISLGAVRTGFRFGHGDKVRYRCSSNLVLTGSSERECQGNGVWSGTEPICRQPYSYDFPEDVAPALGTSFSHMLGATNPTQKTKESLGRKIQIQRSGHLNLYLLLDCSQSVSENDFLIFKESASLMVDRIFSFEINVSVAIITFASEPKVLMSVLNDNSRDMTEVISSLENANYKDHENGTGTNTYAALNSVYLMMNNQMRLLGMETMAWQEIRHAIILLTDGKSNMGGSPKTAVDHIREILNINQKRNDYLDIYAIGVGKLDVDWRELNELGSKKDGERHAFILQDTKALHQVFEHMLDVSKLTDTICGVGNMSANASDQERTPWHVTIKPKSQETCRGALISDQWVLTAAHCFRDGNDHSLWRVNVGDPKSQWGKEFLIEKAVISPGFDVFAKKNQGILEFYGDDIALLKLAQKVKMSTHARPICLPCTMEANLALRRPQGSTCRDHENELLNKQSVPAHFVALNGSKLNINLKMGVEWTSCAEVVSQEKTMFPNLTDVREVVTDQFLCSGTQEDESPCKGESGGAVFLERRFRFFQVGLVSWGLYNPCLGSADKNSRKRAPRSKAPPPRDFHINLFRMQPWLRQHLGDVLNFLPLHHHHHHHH
# T4: human C2 F689A (human, UniProt P06681 21-752)
# T4 sequence: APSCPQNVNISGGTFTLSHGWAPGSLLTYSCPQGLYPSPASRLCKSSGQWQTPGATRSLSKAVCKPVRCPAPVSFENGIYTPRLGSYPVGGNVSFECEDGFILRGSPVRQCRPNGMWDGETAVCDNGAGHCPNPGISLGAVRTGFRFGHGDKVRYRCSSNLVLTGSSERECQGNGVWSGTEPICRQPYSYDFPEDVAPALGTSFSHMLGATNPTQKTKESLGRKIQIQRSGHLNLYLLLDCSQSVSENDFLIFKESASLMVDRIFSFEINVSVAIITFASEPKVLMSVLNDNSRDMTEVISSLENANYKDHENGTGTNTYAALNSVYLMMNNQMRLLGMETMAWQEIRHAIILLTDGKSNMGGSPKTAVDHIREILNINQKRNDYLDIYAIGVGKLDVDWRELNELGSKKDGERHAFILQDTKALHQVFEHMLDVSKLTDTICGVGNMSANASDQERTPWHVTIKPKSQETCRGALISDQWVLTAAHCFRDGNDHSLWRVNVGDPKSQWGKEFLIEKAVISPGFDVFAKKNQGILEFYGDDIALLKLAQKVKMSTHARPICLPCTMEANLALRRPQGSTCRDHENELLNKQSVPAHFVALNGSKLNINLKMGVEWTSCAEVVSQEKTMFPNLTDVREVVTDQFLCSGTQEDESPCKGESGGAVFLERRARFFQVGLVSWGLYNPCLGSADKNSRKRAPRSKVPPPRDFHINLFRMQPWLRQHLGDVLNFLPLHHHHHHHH
# Assays:
# Test in all cases: SPR, KD relative to WT C2;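 also: biacore SPR at 37 °C, anti-C2 mAbs captured via immobilised goat anti-human IgG, C2 alanine or serine surface mutants as analytes, 1:1 model fitted, double-referenced sensograms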
# [1] = target: T1, human C2 F270A
# [2] = target: T2, human C2 S278A
# [3] = target: T3, human C2 V722A
# [4] = target: T4, human C2 F689A
binder,measurement,setting,value
"RF16-226 (antibody, human IgG4 S228P, lambda, pH-dependent anti-C2 antibody from a phage display library; also called WT) heavy: not shown light: SYELTQPPSVSVSPGQTARITCSGDALTSKYVAWYQQKSGLAPLLVIYEDTRRPSGIPAKFSGSSSGSVATLTISGAHGDDEADYYCYSTDASGHQRVFGGGTKLTVLSQPKAAPSVTLFPPSSEELQANKATLVCLISDFYPGAVTVAWKADGSPVKAGVETTKPSKQSNNKYAASSYLSLTPEQWKSHRSYSCQVTHEGSTVEKTVAPTECS",Fold diff,[1],10 fold
same,Fold diff,[2],1 fold
same,Fold diff,[3],10 fold
same,Fold diff,[4],1 fold
